Experiments:
[1] = molecular target: FcγRIIa receptor (H131 variant) (UniProt P12318); assay: cell-based or functional assay
[2] = molecular target: FcγRIIIa receptor (V158 variant) (UniProt P08637); assay: cell-based or functional assay
Sequence of FcγRIIIa receptor (V158 variant) (P08637 other isoform, or with tags, fused parts or gaps mutant limits assumed): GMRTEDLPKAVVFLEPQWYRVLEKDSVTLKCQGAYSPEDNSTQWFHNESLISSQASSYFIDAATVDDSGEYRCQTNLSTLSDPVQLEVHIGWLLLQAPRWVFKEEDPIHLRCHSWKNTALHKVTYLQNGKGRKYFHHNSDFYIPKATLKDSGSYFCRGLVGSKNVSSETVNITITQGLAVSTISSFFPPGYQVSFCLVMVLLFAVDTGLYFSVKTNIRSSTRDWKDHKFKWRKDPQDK

Sequence of FcγRIIa receptor (H131 variant) (P12318 34-317 limits assumed, change not shown): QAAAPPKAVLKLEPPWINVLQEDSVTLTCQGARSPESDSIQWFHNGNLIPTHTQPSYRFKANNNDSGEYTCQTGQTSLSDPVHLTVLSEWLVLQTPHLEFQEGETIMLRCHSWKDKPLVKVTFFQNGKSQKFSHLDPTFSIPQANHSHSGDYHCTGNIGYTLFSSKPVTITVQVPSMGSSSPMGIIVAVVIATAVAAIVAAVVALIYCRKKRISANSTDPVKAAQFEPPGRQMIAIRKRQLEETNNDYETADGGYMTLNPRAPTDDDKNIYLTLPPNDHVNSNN

luminescence, ADCP reporter, 3.048316 ng/mL [1]: 45
luminescence, ADCP reporter, 9.144947 ng/mL [1]: 52
luminescence, ADCP reporter, 27.43484 ng/mL [1]: 42
luminescence, ADCP reporter, 82.30453 ng/mL [1]: 41
luminescence, ADCP reporter, 246.9136 ng/mL [1]: 54
luminescence, ADCP reporter, 740.7407 ng/mL [1]: 60
luminescence, ADCP reporter, 2,222.222 ng/mL [1]: 57
luminescence, ADCP reporter, 6,666.667 ng/mL [1]: 49
luminescence, ADCP reporter, 20,000 ng/mL [1]: 83
luminescence, ADCC reporter, 3.048316 ng/mL [2]: 314
luminescence, ADCC reporter, 9.144947 ng/mL [2]: 329
luminescence, ADCC reporter, 27.43484 ng/mL [2]: 340
luminescence, ADCC reporter, 82.30453 ng/mL [2]: 377
luminescence, ADCC reporter, 246.9136 ng/mL [2]: 381
luminescence, ADCC reporter, 740.7407 ng/mL [2]: 379
luminescence, ADCC reporter, 2,222.222 ng/mL [2]: 373
luminescence, ADCC reporter, 6,666.667 ng/mL [2]: 431
luminescence, ADCC reporter, 20,000 ng/mL [2]: 399
Substance: isotype control antibody

— patent US20210079074A1
